{
  "source": "patent US20070014776A1",
  "about": "“Identification of adiponutrin-related proteins as esterases and methods of use for the same” (priority 2005, published 2007)",
  "key": {"[1]": {"tested_on": "3T3-L1 adipocytes", "experiment": "Effect of adiponutrin overexpression on 3T3-L1 lipase activity (free fatty acid and glycerol release)", "format": "cell-based, mouse", "experimental": "For adenovirus infection, 3T3-L1 cells were cultured in DMEM with 10% FBS at 37° C. with 5% CO2. Two days after the cultures were confluent, the cells were induced to differentiate (defined as day 0) by incubation in DMEM supplemented with 10% FBS, 1 μM dexamethasone (Sigma, St. Louis, Mo.), 0.5 mM isobutylmethylxanthine (Sigma) (MIX), and 1 μg/ml insulin (Sigma). After two days, the medium was replaced with DMEM supplemented with 10% FBS and 1 μg/ml insulin, and cells were then fed every 2 days with the same medium. At day 8 of differentiation, cells grown in 24-well plates were incubated with 500 MOI of adenovirus in OPTI-MEM (Invitrogen, Carlsbad, Calif.) for 2 hours and then DMEM with 10% FBS. After 48 hours, cells were incubated with DMEM with no serum overnight. The next day, cells were washed three times with PBS and incubated with PBS with 2% fatty acid-free BSA (Sigma, St. Louis, Mo.) with 10 μM or 100 nM of isoproterenol (Sigma). When needed, cells were preincubated with 100 nM insulin 30 min prior to isoproterenol treatment. Conditioned medium was taken at the indicated 0-4 hours after isoproterenol treatment and analyzed for free fatty acids and glycerol. Free fatty acids release was measured by using a NEFA-c kit (Wako Chemicals, Richmond, Va.) and glycerol release was measured by using a lipolysis kit (Zen-bio, Research Triangle Park, N.C.)."}, "[2]": {"experiment": "Lipase assay with DGGR substrate on immunoprecipitated V5-tagged proteins", "format": "biochemical", "settings": "V5-tagged WT vs patatin-like domain mutant (Ser of GXSXG to Ala); FIG. 6", "experimental": "HEK293 cells were grown in DMEM media supplemented with 10% fetal calf serum at 37° C. in an atmosphere of 5% CO2. Ten cm tissue culture dishes with 90% confluent HEK293 cells were transfected using Lipofectamine 2000 according to the manufacturer's instructions (Invitrogen, Carlsbad, Calif.). Ten μg of plasmid DNA containing the following expression constructs were used: GFP, human adiponutrin, human adiponutrin-c-term-V5, human desnutrin/ATGL-c-term-V5-6His, human GS2-c-term-V5, human GS2-like-c-term-V5-6His, and patatin-like domain mutants of c-term-V5 and c-term-V5-6His tagged constructs. Three days post-transfection, cells were washed with ice cold TBS and harvested. Cells were pelleted by centrifugation at 1000×g for 5 minutes. Supernatant was discarded, and pellets stored at −80° C. until used for assays.\nFrozen cells, as described above, were resuspended in 1 ml of lipase reaction buffer (20 mM Tris-HCl, pH 8.0, 150 mM NaCl, 0.53% sodium taurodeoxycholate, 1.33 mM CaCl2) containing complete mini-protein inhibitor tablets (Invitrogen, Carlsbad, Calif.; 1 tablet per 7 ml). The resulting suspensions were then sonicated on ice with 4 bursts of 10 seconds from a probe sonicator. Homogenized lysate was then centrifuged at 1000×g for 10 minutes to remove cell debris. A 50 μl aliquot of the resulting lysate was saved for analysis and the remaining lysate was used for the immunoprecipitation. Anti-V5 mouse monoclonal antibody (7.2 μg; Invitrogen, Carlsbad, Calif.) was added to each lysate and then placed at 4° C. overnight with tumbling. Next, 20 μl of protein-A beads (Repligen) was added to each sample and tumbled at 4° C. for 2 hours. Beads were then pelleted with gentle centrifugation and […] of supernatant was saved for analysis. The beads were washed 4 times with 900 μl of lipase reaction buffer followed by resuspension in 100 μl of lipase reaction buffer.\nThe lipase assay (Lehner and Verger (1997) Biochemistry 36:1861-68) uses 1,2-o-dilauryl-rac-glycero-3-glutaric acid-(6′-methylresorufin) ester (DGGR) as substrate. DGGR is cleaved by lipase, resulting in an unstable dicarbonic acid ester that is spontaneously hydrolyzed to yield glutaric acid and methylresorufin, a bluish-purple chromophore with peak absorption at 581 nm. The rate of methylresorufin formation is directly proportional to the lipase activity in the sample. Ten μl of whole cell lysate or IP beads were added to the wells of a 96-well plate. After diluting the samples up to 125 μl in lipase reaction buffer, 125 μl of reaction buffer containing DGGR (final concentration 36 μg/ml in a final assay volume of 250 μl per well). After mixing, OD 581 was monitored at 5 minute intervals for 2 hours to assess lipase activity. Lipase activity is plotted as delta-OD 581/sec. […]"}, "[3]": {"tested_on": "HEK293 cells", "experiment": "[1-14C]-oleic acid incorporation into triglyceride in transfected HEK293 cells", "format": "cell-based", "settings": "overexpression in HEK293 cells; for intracellular triglycerides: compared to control cells (empty vector), FIG. 7", "experimental": "HEK293 cells were cultured in Dulbecco's modified Eagle's medium (DMEM) that contained 10% FBS at 37° C. with 5% CO2. HEK293 cells grown in 12-well plates to 60-70% confluence were transfected with 0.5 μg of human adiponutrin, desnutrin/ATGL, GS2, or GS2-like expression vector using FuGene (Roche). Empty vector, pADORI1.2 was used as a control. After 48 hours, cells were treated with 4 μM [1-^14C]-oleic acid (204 μCi/ml total; Perkin Elmer) and 16 μM cold oleic acid (Sigma) in serum-free DMEM. After 4 hours, cells were washed twice and incubated further with DMEM with 10% FBS. After 16 hours, lipids were extracted and separated by TLC using hexane/ether/acetic acid (80:20:1). Radioactive lipids were detected and quantitated by Molecular Imager FX (Bio-Rad)."}, "[4]": {"settings": "adenoviral overexpression in 3T3-L1 adipocytes, after treatment with 10 μM isoproterenol, vs GFP, FIG. 8"}},
  "data": [
    {"molecule": "insulin [reference compound]", "values": [
      {"measurement": "isoproterenol-stimulated lipolysis", "setting": "[1]; submaximal isoproterenol, preincubation with 100 nM insulin, FIG. 9", "result": "decreased"}
    ]},
    {"molecule": "adiponutrin: human adiponutrin protein, SEQ ID NO:2; patatin-like domain protein of the adiponutrin family, expressed recombinantly (protein, listed as Homo sapiens) MYDAERGWSLSFAGCGFLGFYHVGATRCLSEHAPHLLRDARMLFGASAGALHCVGVLSGIPLEQTLQVLSDLVRKARSRNIGIFHPSFNLSKFLRQGLGKCLPANVHQLISGKIGISLTRVSDGENVLVSDFRSKDEVVDALVCSCFMPFYSGLIPPSFRGVRYVDGGVSDNVPFIDAKTTITVSPFYGEYDICPKVKSTNFLHVDITKLSLRLCTGNLYLLSRAFVPPDLKVLGEICLRGYLDAFRFLEEKGICNRPQPGLKSSSEGMDPEVAMPSWANMSLDSSPESAALAVRLEGDELLDHLRLSILPWDESILDTLSPRLATALSEEMKDKGGYMSKICNLLPIRIMSYVMLPCTLPVESAIAIVQRLVTWLPDMPDDVLWLQWVTSQVFTRVLMCLLPASRSQMPVSSQQASPCTPEQDWPCWTPCSPEGCPAETKAEATPRSILRSSLNFFLGNKVPAGAEGLSTFPSFSLEKSL", "values": [
      {"measurement": "rate of lipid hydrolysis, wild-type versus active-site serine to alanine mutant", "setting": "[2]", "result": "significantly higher"},
      {"measurement": "intracellular triglycerides", "setting": "[3]", "result": "unable to demonstrate a decrease"},
      {"measurement": "triglyceride incorporation", "setting": "[3]; in several experiments (data not shown)", "result": "trend toward increased triglyceride incorporation"},
      {"measurement": "release of free fatty acids into the medium", "setting": "[1]; [4]", "result": "significantly decreased"},
      {"measurement": "release of glycerol into the medium", "setting": "[1]; [4]", "result": "significantly decreased"},
      {"measurement": "basal lipolysis", "setting": "[1]; adenoviral overexpression in 3T3-L1 adipocytes, no isoproterenol, FIG. 9", "result": "no effect"},
      {"measurement": "inhibition of lipolysis by insulin", "setting": "[1]; adenoviral overexpression in 3T3-L1 adipocytes, submaximal isoproterenol plus insulin, FIG. 9", "result": "significantly enhanced"}
    ]},
    {"molecule": "desnutrin/ATGL: human desnutrin/adipocyte triglyceride lipase protein, SEQ ID NO:5 (protein, listed as Homo sapiens) MFPREKTWNISFAGCGFLGVYYVGVASCLREHAPFLVANATHIYGASAGALTATALVTGVCLGEAGAKFIEVSKEARKRFLGPLHPSFNLVKIIRSFLLKVLPADSHEHASGRLGISLTRVSDGENVIISHFNSKDELIQANVCSGFIPVYCGLIPPSLQGVRYVDGGISDNLPLYELKNTITVSPFSGESDICPQDSSTNIHELRVTNTSIQFNLRNLYRLSKALFPPEPLVLREMCKQGYRDGLRFLQRNGLLNRPNPLLALPPARPHGPEDKDQAVESAQAEDYSQLPGEDHILEHLPARLNEALLEACVEPTDLLTTLSNMLPVRLATAMMVPYTLPLESALSFTIRLLEWLPDVPEDIRWMKEQTGSICQYLVMRAKRKLGRHLPSRLPEQVELRRVQSLPSVPLSCAAYREALPGWMRNNLSLGDALAKWEECQRQLLLGLFCTNVAFPPEALRMRAPADPAPAPADPASPQHQPAGPAPLLSTPAPEARPVIGALGL", "values": [
      {"measurement": "rate of lipid hydrolysis, wild-type versus active-site serine to alanine mutant", "setting": "[2]", "result": "significantly higher"},
      {"measurement": "intracellular triglycerides", "setting": "[3]", "result": "significant decrease"}
    ]},
    {"molecule": "GS2: human GS2 protein, SEQ ID NO:8; adiponutrin family member (protein, listed as Homo sapiens) MKHINLSFAACGFLGIYHLGAASALCRHGKKLVKDVKAFAGASAGSLVASVLLTAPEKIEECNQFTYKFAEEIRRQSFGAVTPGYDFMARLRSGMESILPPSAHELAQNRLHVSITNAKTRENHLVSTFSSREDLIKVLLASSFVPIYAGLKLVEYKGQKWVDGGLTNALPILPVGRTVTISPFSGRLDISPQDKGQLDLYVNIAKQDIMLSLANLVRLNQALFPPSKRKMESLYQCGFDDTVKFLLKENWFE", "values": [
      {"measurement": "rate of lipid hydrolysis, wild-type versus active-site serine to alanine mutant", "setting": "[2]", "result": "significantly higher"},
      {"measurement": "intracellular triglycerides", "setting": "[3]", "result": "decreased intracellular triglycerides significantly"}
    ]},
    {"molecule": "GS2-like: human GS2-like protein, SEQ ID NO:11; adiponutrin family member (protein, listed as Homo sapiens) MGFLEEEGRWNLSFSGAGYLGAHHVGATECLRQRAPRLLQGARRIYGSSSGALNAVSIVCGKSVDFCCSHLLGMVGQLERLSLSILHPAYAPIEHVKQQLQDALPPDAHVLASQRLGISLTRWPDGRNFLVTDFATCDELIQALVCTLYFPFYCGLIPPEFRGERYIDGALSNNLPFADCPSTITVSPFHGTVDICPQSTSPNLHELNVFNFSFQISTENFFLGLICLIPPSLEVVADNCRQGYLDALRFLERRGLTKEPVLWTLVSKEPPAPADGNWDAGCDQRWKGGLSLNWKVPHVQVKDVPNFEQLSPELEAALKKACTRDPSRWARFWHSGPGQVLTYLLLPCTLPFEYIYFRSRRLVVWLPDVPADLWWMQGLLRNMALEVFSRTKAQLLGPISPPATRVLETSPLQPQIAPHREELGPTHQA", "values": [
      {"measurement": "rate of lipid hydrolysis, wild-type versus active-site serine to alanine mutant", "setting": "[2]", "result": "not affected"},
      {"measurement": "intracellular triglycerides", "setting": "[3]", "result": "decreased intracellular triglycerides significantly"}
    ]}
  ]
}
